The values that follow are results of earlier work, collected in patent publication US7266483B2, “System and methods for optimized drug delivery and progression of diseased and normal cells” (Optimata Ltd., priority 2000, dated 2007).

For data set [1] the following is noted: modeled as exponential distribution, held constant.
In data set [2] the test system is post mitotic compartment. Particulars: counts made on day 5 after G-CSF administration; noted by Price.
Where [3] appears, read: average model parameter calculated from published data.

As to “TPO: Thrombopoiesis-controlling cytokine, glycoprotein of about 350 amino acids; term covers its recombinant forms and analogs”, under setting [3], the “a, TPO-clearing ability of the receptors” value is 38 pg/ml/hr/receptor molecule and the “f, coefficient of non-specific TPO clearance” value is 0.1 h⁻¹. Moreover, the “relation coefficient of initial maximum TPO blood concentration (xi) to administered intravenous (IV) dose (s)” value (linear relation, xi=0.0167·si) was 0.0167.

B1: G-CSF: Granulocyte-Colony Stimulating Factor; generates an increase in blood Neutrophil levels (protein, UniProt P09919 31-207, looked up)
Granulocyte …: TPLGPASSLPQSFLLKCLEQVRKIQGDGAALQEKLVSECATYKLCHPEELVLLGHSLGIPWAPLSSCPSQALQLAGCLSQLHSGLFLYQGLLQALEGISPELGPTLDTLQLDVADFATTIWQQMEELGMAPALQPTQGAMPAFASAFQRRAGGVLVASHLQSFLEVSYRVLRHLAQP
B1: the “half-life of G-CSF in the blood” value in data set [1] was 3.5 h. Moreover, in data set [2], the “number of cells in the post mitotic compartment following administration of G-CSF” value was “not significantly changed”.
